Reference: patent US20030215899A1, “Reversible oxidation of protein tyrosine phosphatases” (CEPTYR, Inc., priority 2002, published 2003)
Entries after “also recorded” stand apart in the source; their conditions may differ.

Columns and labels:
MAPK = experiment: anti-phospho-MAPK / anti-MAPK immunoblot; format: cell-based, Rat; conditions: peptide growth factors, Rat-1 cells
Description: For immunoprecipitation, cells were rinsed with ice-cold PBS, then lysed in ice-cold 20 mM Hepes (pH 7.5), 1% NP-40, 150 mM NaCl, 10% glycerol, 200 μM […] and protease inhibitors (25 μg/ml of aprotinin and leupeptin). […] The anti-pTyr antibody G104 was described previously (Garton et al., 1997 Oncogene 15, 877-885). Anti-PDGFRββ antibody (Ab-X) was a gift from Dr. Daniel DiMaio at Yale University (Irusta and DiMaio, 1998 EMBO J. 17, 6912-6923). Anti-human G-CSF receptor (G-CSFR) antibody was provided by Dr. Toshio Hirano at Osaka University, Japan (Fukada et al., 1996 Immunity 5, 449-460). Lysate (400 μg) was incubated with 5 μg of antibody conjugated to protein A/G-Sepharose (Amersham Pharmacia, Arlington Heights, Ill.) for 2 hours at 4° C. For immunoblotting, aliquots of total lysates (30 μg per sample) or immunoprecipitates were subjected to SDS-PAGE and transferred to nitrocellulose filters, which were incubated with appropriate primary and secondary antibodies and the specific signals were visualized by the ECL detection system (Amersham Pharmacia).

[1] = test system: intracellular ROS in Rat-1 cells; experiment: ROS-induced DCF fluorescence (microscopy, flow cytometry); format: cell-based; conditions: 20 μM CM-H2DCFDA, growth factor 50 ng/ml, 10 mins
Description: The effects of H2O2 and t-BHP on inactivation of PTPs and activation of MAPK signaling pathways were next compared in a cellular context. Intracellular ROS were measured using 2′,7′-dichlorofluorescein diacetate (H2DCFDA) and 5-(and-6)-chloromethyl-2′,7′-dichlorodihydrofluorescein diacetate (CM-H2DCFDA) (all fluorescent ROS indicators from Molecular Probes, Eugene, Oreg.) either by fluorescence microscopy, using a Zeiss Axiovert 405M inverted microscope equipped with a fluorescence attachment and digital camera, or by cell sorting, using a FACSCalibur System ([…].), according to the manufacturer's recommendations. […] Images of ROS-induced DCF fluorescence are shown at magnification 400× (FIG. 3B upper panel). Cells (1×10^5) that underwent the same treatment as above were harvested and resuspended in Hanks' solution, then immediately subjected to flow cytometric analysis to measure ROS-induced DCF fluorescence. The basal peak indicates background fluorescence, whereas the rightward shifted peak indicates ROS-induced DCF fluorescence (FIG. 3B, lower panels). […]
Rat-1 cells were incubated with 20 μM CM-H2DCFDA in the dark for 20 mins, then exposed to peptide growth factors (50 ng/ml) for an additional 10 mins. Images of ROS-induced DCF fluorescence are shown at 50× magnification. […]

70 kDa PTP (SHP-2) = molecular target: T1, 70 kDa PTP (SHP-2) (Rattus norvegicus, UniProt P41499); experiment: modified in-gel PTP assay, growth factor stimulated Rat-1 cells; format: cell-based
T1 construct: endogenous in cells; host or cells: Rat-1 fibroblasts
T1 sequence (P41499 1-593): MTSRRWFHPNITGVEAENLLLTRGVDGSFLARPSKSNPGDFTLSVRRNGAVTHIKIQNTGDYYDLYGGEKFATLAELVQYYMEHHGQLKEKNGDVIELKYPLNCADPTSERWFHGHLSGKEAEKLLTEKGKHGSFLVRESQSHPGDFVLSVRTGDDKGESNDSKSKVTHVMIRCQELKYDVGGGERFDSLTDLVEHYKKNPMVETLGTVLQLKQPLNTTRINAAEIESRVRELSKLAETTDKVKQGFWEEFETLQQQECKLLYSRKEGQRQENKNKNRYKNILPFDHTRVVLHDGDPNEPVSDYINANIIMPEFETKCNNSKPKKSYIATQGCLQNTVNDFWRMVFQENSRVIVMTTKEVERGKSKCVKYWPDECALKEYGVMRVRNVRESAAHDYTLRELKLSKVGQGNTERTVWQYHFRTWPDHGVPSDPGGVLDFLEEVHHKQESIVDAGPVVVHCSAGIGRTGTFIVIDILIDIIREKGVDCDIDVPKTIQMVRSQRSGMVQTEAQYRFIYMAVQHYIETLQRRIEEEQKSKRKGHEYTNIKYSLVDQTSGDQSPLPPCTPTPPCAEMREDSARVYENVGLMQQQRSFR
From the text: To determine whether ROS stimulated intracellular tyrosine phosphorylation through the oxidation and inhibition of cellular PTPs, a modified in-gel PTP activity assay was devised, as follows: As substrate, poly (4:1) Glu-Tyr (Sigma) was labeled with [γ-^32P]-ATP using the GST-FER fusion PTK, as described previously (Shen et al., 1998 J. Biol. Chem. 273:6474-81). The labeled substrates were used within three weeks to limit the variation of its specific activity from experiment to experiment. The lysis buffer (25 mM CH3COONa, 1% NP-40, 150 mM NaCl, 10% glycerol, pH 5.5) was degassed at 4° C. for overnight, before catalase and superoxide dismutase (both 100 μg/ml), protease inhibitors and 10 mM iodoacetic acid (IAA) were added. Following stimulation, cells were lysed under anaerobic conditions in an argon chamber. Lysates (25 μg) were processed as described herein and an “in-gel” phosphatase assay (Burridge and Nelson, 1995) was conducted using SDS-PAGE gels containing a radioactively-labeled substrate (1.5×10^6 cpm/20 ml gel solution, approximately 2 μM p-Tyr).
Cells were triggered with the appropriate stimulus and harvested under anaerobic conditions in lysis buffer containing IAA. Those PTPs that had not encountered ROS in the cell became irreversibly inactivated by alkylation of their active site Cys with IAA. However, in contrast, any PTPs in which the active site Cys had been oxidized in response to the stimulus were resistant to alkylation. For the “in-gel” phosphatase assay, a 10% SDS-PAGE gel was cast containing a radioactively-labeled substrate. An aliquot of cell lysate was subjected to SDS-PAGE and proteins in the gel were sequentially denatured, then renatured in the presence of reducing reagents. […] The reaction was then terminated by fixing, staining and destaining the gel. Finally the gel was dried and exposed to film. […]
As described above, treatment of Rat-1 cells with H2O2 led to inactivation of multiple PTPs (FIGS. 2-3). […] Lysates of PDGF-stimulated Rat-1 cells were then analyzed using the modified in-gel PTP activity assay described above. […]

B1: EGF: peptide growth factor (protein, UniProt P01133 23-1207, looked up)
Pro-epidermal growth factor: PQHWSCPEGTLAGNGNSTCVGPAPFLIFSHGNSIFRIDTEGTNYEQLVVDAGVSVIMDFHYNEKRIYWVDLERQLLQRVFLNGSRQERVCNIEKNVSGMAINWINEEVIWSNQQEGIITVTDMKGNNSHILLSALKYPANVAVDPVERFIFWSSEVAGSLYRADLDGVGVKALLETSEKITAVSLDVLDKRLFWIQYNREGSNSLICSCDYDGGSVHISKHPTQHNLFAMSLFGDRIFYSTWKMKTIWIANKHTGKDMVRINLHSSFVPLGELKVVHPLAQPKAEDDTWEPEQKLCKLRKGNCSSTVCGQDLQSHLCMCAEGYALSRDRKYCEDVNECAFWNHGCTLGCKNTPGSYYCTCPVGFVLLPDGKRCHQLVSCPRNVSECSHDCVLTSEGPLCFCPEGSVLERDGKTCSGCSSPDNGGCSQLCVPLSPVSWECDCFPGYDLQLDEKSCAASGPQPFLLFANSQDIRHMHFDGTDYGTLLSQQMGMVYALDHDPVENKIYFAHTALKWIERANMDGSQRERLIEEGVDVPEGLAVDWIGRRFYWTDRGKSLIGRSDLNGKRSKIITKENISQPRGIAVHPMAKRLFWTDTGINPRIESSSLQGLGRLVIASSDLIWPSGITIDFLTDKLYWCDAKQSVIEMANLDGSKRRRLTQNDVGHPFAVAVFEDYVWFSDWAMPSVMRVNKRTGKDRVRLQGSMLKPSSLVVVHPLAKPGADPCLYQNGGCEHICKKRLGTAWCSCREGFMKASDGKTCLALDGHQLLAGGEVDLKNQVTPLDILSKTRVSEDNITESQHMLVAEIMVSDQDDCAPVGCSMYARCISEGEDATCQCLKGFAGDGKLCSDIDECEMGVPVCPPASSKCINTEGGYVCRCSEGYQGDGIHCLDIDECQLGEHSCGENASCTNTEGGYTCMCAGRLSEPGLICPDSTPPPHLREDDHHYSVRNSDSECPLSHDGYCLHDGVCMYIEALDKYACNCVVGYIGERCQYRDLKWWELRHAGHGQQQKVIVVAVCVVVLVMLLLLSLWGAHYYRTQKLLSKNPKNPYEESSRDVRSRRPADTEDGMSSCPQPWFVVIKEHQDLKNGGQPVAGEDGQAADGSMQPTSWRQEPQLCGMGTEQGCWIPVSSDKGSCPQVMERSFHMPSYGTQTLEGGVEKPHSLLSANPLWQQRALDPPHQMELTQ
modifications: Pro-epidermal growth factor
MAPK
  activation of MAPK: activated MAPK to a similar extent
[1]
  production of intracellular ROS: ROS production was not detected
70 kDa PTP (SHP-2); peptide growth factors, lysis with 10 mM IAA
  oxidation and inhibition of SHP-2: not following exposure of these cells to EGF or FGF; also recorded: not by EGF or FGF

B2: G-CSF: ligand of the G-CSFR/PDGFR chimeric receptors (protein, UniProt P09919 31-207, looked up)
Granulocyte …: TPLGPASSLPQSFLLKCLEQVRKIQGDGAALQEKLVSECATYKLCHPEELVLLGHSLGIPWAPLSSCPSQALQLAGCLSQLHSGLFLYQGLLQALEGISPELGPTLDTLQLDVADFATTIWQQMEELGMAPALQPTQGAMPAFASAFQRRAGGVLVASHLQSFLEVSYRVLRHLAQP
70 kDa PTP (SHP-2); Rat-1 cells transfected with WT G-CSFR/PDGFR chimeric receptor
  oxidation and inactivation of SHP-2: rapid oxidation and inactivation of SHP-2
70 kDa PTP (SHP-2); Rat-1 cells transfected with Y1009F mutant G-CSFR/PDGFR chimeric receptor
  oxidation of SHP-2: did not induce oxidation of SHP-2
